Among the data in article PMC5811392 are binding result and Kd values, retold here.

As a reminder, the Kd is the constant that tells how readily two partners part at equilibrium. A higher Kd goes with weaker binding.

One series concerns the target T1, p23 (Homo sapiens, UniProt Q15185 1-160).
T1 sequence: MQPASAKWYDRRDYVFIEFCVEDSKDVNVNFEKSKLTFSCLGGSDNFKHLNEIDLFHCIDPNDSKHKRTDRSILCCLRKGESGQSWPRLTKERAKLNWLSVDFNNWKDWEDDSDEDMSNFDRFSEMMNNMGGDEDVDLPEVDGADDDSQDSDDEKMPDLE
The series is described as follows: NMR DOSY.

The next series has as its target p53 DBD (Homo sapiens, UniProt P04637 88-312). Nature of the series: fluorescence anisotropy.

Sequence of p53 DBD (P04637 88-312): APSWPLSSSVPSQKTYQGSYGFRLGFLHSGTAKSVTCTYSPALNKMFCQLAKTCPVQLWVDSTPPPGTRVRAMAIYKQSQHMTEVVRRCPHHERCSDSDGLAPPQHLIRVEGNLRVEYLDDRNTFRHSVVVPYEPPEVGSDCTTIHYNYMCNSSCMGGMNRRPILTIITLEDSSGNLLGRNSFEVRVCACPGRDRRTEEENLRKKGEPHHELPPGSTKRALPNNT

B1: p21 20-mer DNA, unlabeled (dsDNA)
DNA 1: GAACATGTTCGAACATGTTC
DNA 2: GAACATGTTCGAACATGTTC
Turning to B1, the binding result with p23 was “no binding”.

B2: p21 20-mer DNA, Cy5 (dsDNA)
DNA 1: GAACATGTTCGAACATGTTC
DNA 2: GAACATGTTCGAACATGTTC
In the series with p53 DBD, B2 displayed a Kd of 45 ± 7 nM.
